Results reported in paper PMC4561382, “Aven recognition of RNA G-quadruplexes regulates translation of the mixed lineage leukemia protooncogenes”.

Experiments:
Aven DiRGG peptide = biological target: T1, Aven DiRGG peptide (human, UniProt Q9NQS1); test: fluorescence plate binding (immobilized peptide); K+-folded RNA; joint range (173-200 in author response); RNA folded in 10 mM Tris-acetate pH 7.7, 200 mM K-acetate, 5 mM Mg-acetate (75 C 10 min, 21 C 5 min); peptide assay 1 h at room temperature, washes in this buffer; pull-down 100 nM RNA in cell lysate with 2 mg/ml heparin, 1 h on ice, beads 30 min at 4 C; details: tags: N-terminal biotin; G4
T1 chain: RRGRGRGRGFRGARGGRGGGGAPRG

Aven TriRG peptide = biological target: T2, Aven TriRG peptide (human, UniProt Q9NQS1); test: fluorescence plate binding (immobilized peptide); K+-folded RNA; range given jointly for TriRG and TriRGme; RNA folded in 10 mM Tris-acetate pH 7.7, 200 mM K-acetate, 5 mM Mg-acetate (75 C 10 min, 21 C 5 min); peptide assay 1 h at room temperature, washes in this buffer; pull-down 100 nM RNA in cell lysate with 2 mg/ml heparin, 1 h on ice, beads 30 min at 4 C; details: tags: N-terminal biotin; G4
T2 chain: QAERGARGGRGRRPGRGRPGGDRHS

B1: sc1 G4 (fluorescein) (structured_RNA)
RNA: GCUGCGGUGUGGAAGGAGUGGUCGGGUUGCGCAGCG
- Kd (Aven DiRGG peptide): ~187 nM
- Kd (Aven TriRG peptide): ~84.8 nM
